Consider 18 sequences from a protein production outcome set (Wang et al. 2014).

A short description of this series: label from the status in PepcDB records.

For “MRIAALFTCIIGVFMLATSVQAAQPADITRLSNGLTVLVLKDDRFPLASLRLYVHAGSAFETPEEAGISHLLEHMVFKGTVKRPKGQVARDVESVGGYLNAATSFDYTVYLTDMPSTQWKLGMDVLRDMAFEPALDPAELESEKDVVIAELQRGEDSPDSRIFQSLQAGTLKGTTYERPIIGYRETIRATTADTMRAYIRKHYQPQSMLLTVVGNVDPAEVRAEAERLFGGLTNDQNITPPAAIDARAFAHGPVVNVEHGPWKKVYLGVALPVPGLKALQAAQLDMLSQLLGGDPTALLYRTFKYEKQLVDDISVANYSFERVGMLYITAELDADKVETFWKELTTMLAGLKADAFTEQEFERARLNIEDGLYRSKETVAGLASKEGYFQFFSDGPQGEANYLQAVRDVERPQLEALIRDWLRPERLTVSVLLPEGTKAPALAATLKSTWPSKGKAAEEGNAAAVGKTETVDLGGGRKVVLIPDTTLPYTALDMVFSGGNALLDQNRQGLAALTASVLTKGTLKHDAPTLEAFQSDRAASLGASAGRRTFTLSLREPSRFDGDMFGLLHEVLTTPALAPDEVAREKRNQVASIRAREDQPLGLAFRHLTPFLFPGHSYGFYHLGQPETVEGFTRDDVKAFWARQAAQPWVMSVAGSFDREAVLRFAKSLPAPSGKPVSLDAPAWTPEKALDLRLPERNQAHLLLVFPTVGLAHKDTPALELLQSVLAGQSGLLFRDMRDKQGLGYTVTAMNWQSDLAGFMVLYIGTEPGKLEQAEAGFRKVIDQLHATALPDEELRRGKNQMRGDYYREHQRLGSRSSEAAMLTSQGYPLLFNREVIDKAEKLAPSDLERVARTYLDMNKVRVVKVLP”, the protein production result is listed as “failed”. With “MRIASLVPSITELLFDLGLADQLVARTGFCIHPEPAVRAVAKVGGTKDVKLDRLRALAPTHVVVNIDENRRETVDEIRTFVPHVIVTHPCAPEDNLALYRLLGGIFGRLEHHHHHH”, the protein production entry is reported as “failed”. Take “MRIAVVGATGRIGSKLTRTLLGAGHQVKALSRGGAALEALVEAGAEPFLGSFDTGAGALDTFFQDVEAAFLMVKTDWNNIEGHYPAVAQRFVDALRGSPVKLAVSLSAMGSDVDGKTGHFELFHHLDQRLNELNDIDMVHLRAAWFMENTLAWTASVAKYGRLAWFYEPDLKMPWVATDDIAGLAAKELTNPTGDHRVIRETGSEDLTMNELAAMIGREIGKPVEYRFIDRGRKEIENEYLARFGTPEHWLDDSRSADALNHGVVRFQGGDDVRPVLPTTMEAFLKTIWTPRYLEALASEGKPETFEMWCAR”: the protein production result is recorded as “failed”. “MRICLFLCLCLCMASPALAQVAVFPALSGKTDAQTLVVYSSLDEPLATPMIEGFQKANPDIAVHYEDMLTGEIYDRIVKETDAGKKTADFAFSSAMDLQVKLSNDGYAQRSDLAMSARWPAWANWRNTAYALTFEPAVFVYHKPSFTTEKPPATRAEFVDYLERHAKEVHGRIATYDIERSGVGFLFMSRDQEQFGDIWSVIKAMGAAGVKVYSTSSAILERVSDGRFVLGYNILGSYAADWASRHPDVGIVLPKDYTVVMSRIGLVPEAAANPELGRRYLEFFMSKEGQTIMARQLQIPAVSPEVAGENTANTMQAIHGAQLRPVPVSPGLMVYLDQVKRSR”: the protein production entry is listed as “not failed”. As for “MRIDKFLQSVGLVKRRVLATDMCNVGAVWLNGSCAKASKEVKAGDTISLHYLKGIEEYTILQIPALKNVPRKDTHLYIAPKTKE”, the protein production result is given as “failed”. As for “MRIFGKARHRPSASWRQATDRAFTLIGDGRYEDAGALLTRAADLEPWLSESWFNLALLHKFRHDWEQARAAGLRAVALLDRDIGAPDWWNVGIAATALQDWPLARRAWQAYGLRTPGGATDAGEPLGMDLGSAAVRLSPEGEAEVVWGRRLDPARVEVLSIPLPSSGRRWGEVVLHDGVPHGERTTSAGHSYPVFDEIELWAPSPVPTWVVLLEAATESDRDALEQLAADAGFAAEDWSSSVRLLCRMCSESRMPSDEGDGEHLDPHDHSEPGHPGPLGHRTDGQLWVPERECGVAAPAGLVKGLLDGWVADSPDSRDWRDLEEVC”, the entry is “failed”. With “MRIFIIKSSTAHTAFDYSIKDIPGTSGRLDLICRSLNAAFQLSHSFRKNVRVYTVLYGPPDPPKTIRFEGAKIKPKTLNPDEVSTAKLIGKILNAGKDIKEPTKEREVLPGIYISRMTFEDVVRKNIKYNLYLLEENGVDIEKVKFPQDNVGFILGDQNGFTEEELNFLEGLVPKITIGPKPYLTSHVIAFVNIYLDRIGIP”, the protein production result was “failed”.

As to “MRIHSIILLLFLLVISPVAGSISITDSTASKFDRYFYEGVRQREQENYAAAFDIFRYCHRLNPNDAALLSELGKLYIAIGRQEEGTRYLEQAYRLYPDNKNYGNILGAVYERQGRADDAVRLYEEMSEQFPSEDELRFKLANMYVQAGEIDKAIYIYNRMEAQNAVNAADASNYAEIRARLYLMTGQTNKALNELRRLCNRFPEVNEFRLKYAGTLLDSEKYDEAYEQLQLIARTDSTSGLYHFAMASYYLGTNEKEAAINEMIKVAADKDVAPEQKLPIILRFIGTDTDEEDAPKKEYNILLEKILASHPTEVDARLFYAELLEMQGDSIHAMEVCRPITEFAPKEERAWKFMLGRAVTGQNHTEVHRISEQARQYLPGVPLFYLYDAISYYIEKKGSEAKHILQEALEHIDAEKDPNGLSDIYSQLGDLAYEENKPEEAFANYEKALELNPRNVGVLNNYAYFLAKEGGDLAKAERMAAQCVKLLPDNAVSLDTYGWVFFLRENYTLAKLYIEKALGLAADNPDADVVEHHGDVLYMLGEKEKAMLEWKRAKEIGGGGSPMLDKKIEQGKYIPEKKK”, the protein production entry was “failed”. Turning to “MRILADTNVIIDALTSREPWNKSAEEIFLMAANHTIEMYITASSATDIYYLIRKHLHNTETAKMIMGKLYSLTGILEVTADDCMDALASAISDYEDAVVEKVASRKDMDYIVTRNIKDYQAGGTKIILPDDFVKLVEEELEHHHHHH”, the protein production result is reported as “failed”. Regarding “MRINLQSLGCRLNEAELESWAREFQAAGHRLVSETGDADLIVLNSCAVTAEAVRKSRQMIRRTQRLSPRARLVLSGCYATLHGDEAAALGVDLVVSNADKSRLVEIAARELALEAMPEFSTEPGEAALFALGRQRAFVKVQDGCRYRCTFCIVTVARGEERSRLPAEVIREIRRLQAEGVQEVVLTGVHLGGYGSDLGLPLDALIRSILQETEIPRLRLGSLEPWDLPPGFFDLFENPRFMPHLHLPLQSGSDTVLKRMARRCKSEEFARLADHARRQVPDINITTDIIVGFPGETEREWEESLQFIETIGFGDIHVFTYSVREGTKAAAMGGHVPAEIKKERSRVLHELALGQKRALLGRFVGREMPVLWENRRDGADRGYTPNYLRVAIQTPETGLTNRITPVRLVKVDASGEFLWCGPVTLPPAAPADTRWRR”, the protein production result is “failed”. For “MRINTRRKKWAAVAVVTLVSVIASVIVTVIVVGTLDPQSLRPAIIVPLLVAPLATHWGAERLLEIDKLNQQLAHLNRIDQMTQLYNRACLLEKLEQEPEEAGMILIADIDHFKQINDTYGHDVGDLVIIEVARVLQRSSLPEGIAARFGGEEFVIYVPRLDLEAAEFRAEAIRQAVEAQSVMIDGRKLSCTISIGIEIRQMQENVGDVLKRADEALYRAKAQGRNQVVAARRLARAGKSRETAQARRAP”, the protein production result is “failed”. Consider “MRIPYIDCGMNSLFFITLLGSFFTVAQANSSSDLLELPATNSALAIKSVLMAMTPNNDAILVVGERGHIINWQNDDNWQQLQSPVSVAITDVTILSDGSKVAVGHDGVILKVDSNSTTWRKVFTGKEITQFQIAQLKQQYQSLEQVILQTQDEDELEELTYQLDDLTFAIEDNQLELKSGPNKPLLSVTSTSNDTLFASGAYGILLSSKDKGETWQLVSNHLDNPDRFHLNTVIATADDQLYIVGENGMGFHSTDVGQTWSVMTLPYSGSLFGILANTVKTHTISTDDINSTKNKTQLVAFGLQGNIMVSLDGGGNWQHIKLPRSTSLLGGNFSKQGKVYLVGHGGVIVSFYPENLSTLTIKKHPSGAALSSVLVKDNSLILAGQFGISQWPIEAEE”, for which the protein production entry is recorded as “failed”. As for “MRIQIQKLSYRDIDSFIELLDVFEEVFEMKNFEMPSVEHLEELLGKDDFFVFVARSEGTIVGGLTAYSLTQYFSKSPLLYIYDVAVMKRHQRKGIGKKLIMGIKDYCKDSDIGEIIVQADEADEHAIEFYQSTGAKAAKVVQFYYALNG”, the entry is “failed”; as for “MRISCMSSFLTSDVLIAFSVTFLAGLATLLGGAIVLFFKQPSLRLLSFGLAFSAGAMVYISLTEILNKSIHSFSEVFSAKVGFAFATFAFLTGVIAILLLDRCVPNPHTMLEKTTAQQLDQTQLRRTGLLTMLAITAHNFPEGLATFFATLDSPILGAPLAVAIAIHNIPEGIAIAVPVYMATGQKSYAIWASLLSGLAEPLGAALGYFILAPYMGATMYGIIFGLIAGVMVYLAMDELLPAAKKYSQGHETVYGLVTGMAALATSLVLFQWV”, “failed”; as for “MRISKMLVTELNIYPLKSARGIALKESAVSAEGLPGDRRAMLTDPSGHFITQRELPAIATVLARHEDGGMALSRERSGEIFARPSGQRMDVAVWKSIVSANIADDETNDTLSAWLGREVKLVFFDDAAKRIASLEWTGNETPVTFADGYQILVTTTASLAALNDNMRGNGEDAVGMERFRPNIVLETEEAWAEDRWAAIEIGGIRFDLVKPCARCIMTTQDQMTGSRDVPSPMKAMGRIRMSGDRRVPGPLFGWNVTPRGEGRLSVGDVARVVEERPEGWAIKRRLEHHHHHH”, “not failed”. As to “MRIVIAGGHGQIALRLERLLAARGDEVAGIVRKAEQADDLRAAGAEPVVLDLESASVEEVAERLRGADAAVFAAGAGPGSGVARKDTVDKAAAVLFADAAVRAGVRRFLIVSSMGADPGHQGDEIFDVYLRAKGEADAYVSSLDALDWTILRPGALTDDAGTGLVRLEAHTGRGPVPRDDVAAVLAELVDTPATNGLALELISGSAPVSVAVKSVAGN”, the protein production result is recorded as “failed”.

Regarding “MRKARGIKLIAVFLVAAVVNVVFGFCVLAKAQILKKPAENSYVFDYANLIDSSDEEEMRALAKEIEDKSKAEIVVVTVETLGSYTIEEYANELFRSWEIGDKELNNGVLILVNKENLLLGKKGRIRIEVGYGLEGAITDGKAGRTLDEYAIPAFERNEYSKGIRDTFLAVASEVANEYGLKIDGLSGYGASEDVNENEVTSDGNAENVVDVPFGLGIGAGLIVGFGLFFFIIFLMVIVILYNQPYAGKKYEWTWKNGKWEKKVYVYRYDDLWKNNRSFFDDSDDSDSFGSGGGFGGFGGGSSGGGGASR”, the protein production entry is recorded as “failed”. In the case of “MRKCLLSVAMIVKDEEHNIRRALESIKDVVDEIVVVDTGSTDRTPEIVREYTDKLYFHEWKNDFSEARNFSLKFPTCEWVLILDADEEASEEFRQNIRSFLESLPEDVNTVYLPTVSYLDWDFKRTEIASTPRIFRNGTVYYKNIVHNQAVYKPKVVHAPFVIYHYGYIWTRKLKKNKYERTATLIREQLKTVKNPIEKIYYLIQLYKTEKTGGRKHEENRIAWETLQEIMKVGKIPPIGLEFLYIFGMELILNGFLEKGEELIDTAIRVFPENPDPYFAKLAIYERRKDWENLYQWGKKFLDVLNKALSQAEKYEFTITTIKEIGTAHLLMCHACIKLKKWNEAYEHLLKAIENNIDESKFTLTLQIVSEIDESENFQKVLKLVEKIAEHSENLFFDEIVEKIAEFEIEASEELLNKLPVSRKISKFILKRLVEKKDFLFEYLTGGDINSFVEKTGIPGLLFIFDLLKNRETEGRLIRILSKIEGDEKPNGIVQALIGDLYLKLGNFSEAISRYRKALELAPEIGNFIKPVIEDLKTRLDPDIEGVYEELYRYFSGYREFPFNILEFTKEDAEKLYLISDHPLAIYTSAVAVFPKSKEKARALLERIKDVSKLSFYYYRLAKTWEEENPSKAFELHIKAVEENENLGDIALGRYKYDGLYPNQTFPFMKKEDEIVWAGNITEKFSGLGVIHPVRAWKRKENLYYALPHPTDEALKLYKEREKEILKEPPFKVKEEHMIGVLLESDIRDLRIKGEASGLESILKDLEIELKEDSKNLLVVSGVEETLDLSKIAEDAERVLLFFFVPDLRDRNNSVWYYPAFRVLRTTHQMKKTLEDLRFSVVKVKALDKNLRFIEALRRL”, the protein production result is recorded as “failed”.
